Reference: patent US20240358805A1 (BRIGHAM AND WOMEN S HOSPITAL, published 2024)
Numbering of substitutions follows the chain as printed.

Tests used:
[1] = biological target: T1, Aβ oligomers (oAβ) in human plasma (human, UniProt P05067 672-713); assay: 71A1 capture / 3D6 detector sandwich immunoassay, sample with or without 8M GnCl
T1 construct: Natural mixture; also called plasma oAβ; 71A1-positive oligomers in plasma

[2] = biological target: T2, soluble Aβ / Aβ oligomers (oAβ) of human AD brain extracts (human, UniProt P05067 672-713); assay: as above
T2 construct: Natural mixture; also called Aβ from human brain soaking extract; AD brain soaking extract oAβ

[3] = biological target: T3, Aβ / Aβ oligomers in human CSF (human, UniProt P05067 672-713); assay: as above
T3 construct: Natural mixture; also called CSF Aβ; CSF Aβ oligomers

peptide mimetic 11 = biological target: T4, peptide mimetic 11; assay: indirect ELISA, peptide at 10 µg/mL on maleimide-activated plate, absorbance at 650 nm
T4 construct: As for peptide mimetic 1; also called peptide 11
T4 peptide: NMYEWNHKDPNM
Protocol: (§1) A standard, indirect enzyme linked immunosorbent assay (ELISA) with purified monoclonal antibody 71A1 was used to assay for binding to peptide mimetics 1-13 (sequences in FIG. 13) conjugated to maleimide-activated micro titer plates at 10 μg/mL in 0.1M Sodium bicarbonate buffer pH10 and blocked with PBS and 2% BSA. After one hour incubation, the wells were washed and then 100 ul of a secondary, Horseradish peroxidase (HRPO)-conjugated goat anti-mouse antibody was added and the plates, incubated for an additional hour before addition of TMB (3,3′,5,5′-Tetramethylbenzidine) substrate. Absorbance was measured in a spectrophotometer at 650 nm.

peptide mimetic 8 = biological target: T5, peptide mimetic 8; assay: as above
T5 construct: As for peptide mimetic 1; also called peptide 8
T5 peptide: SYELHHKPLHAQ
Protocol: as §1

peptide mimetic 13 = biological target: T6, peptide mimetic 13; assay: as above
T6 construct: As for peptide mimetic 1; also called peptide 13
T6 peptide: QVYEVHHRGYTD
Protocol: as §1

peptide mimetic 6 = biological target: T7, peptide mimetic 6; assay: phage display panning (Ph.D.-12 library) on immobilized 71A1
T7 construct: As for peptide mimetic 1; also called peptide 6
T7 peptide: TPNNTTSHRYPD
From the text: (§2) A New England Biolabs (NEB) Ph.D.-12™ Phage Display Peptide Library Kit (instructions attached) was used to isolate amino acid residue peptide ligands (referred to herein as peptide mimetics) that bound to immobilized Mab 71A1. The New England Biolabs Ph.D.-12™ Phage Display Peptide Library Kit is a combinatorial library of random, 12 amino acid peptides (12-mers) fused to a minor coat protein (pIII) of the M13 bacteriophage. The peptide was expressed as a fusion with a coat protein that produces a display of the fused protein on the surface of the bacteriophage. The library consists of 2.7×109 electroporated sequences, amplified once to yield approximately 55 copies of each sequence in 10 μl of the supplied phage.
(§3) Immobilized 71A1 antibody was used to isolate the 12 amino acid peptides, shown in FIG. 13, that bound to the variable region. Thermo Scientific™ AminoLink Plus Coupling Resin was used to immobilize Mab 71A1. Negative control particles were made using monoclonal antibody 3C7 with specificity for an irrelevant peptide sequence. The Thermo Scientific™ AminoLink Plus Coupling Resin Protocol is provided that was used to produce the 71A1 particles panned with the NEB library. Briefly, 2 mL aminolink particle slurry was washed twice with 10 mL, 0.1 M sodium bicarbonate buffer pH 10 in a 15 mL conical tube by centrifugation for 10 minutes at 2000×g. 10 mgs of 71A1 antibody in this binding buffer was then added to the particles transferred to a 2 mL eppendorph tube and rotated at room temperature for 2 hours. The slurry was then added to a Millipore, Ultrafree-MC centrifugal filter unit and the resin washed 3× in 2 mL, 0.1M sodium phosphate, 0.15M NaCl, pH 7.2 binding buffer. Spun particles were then mixed with 2 mL pH 7.2 buffer and 40 μl of 50 mM Sodium Cyanoborohydride Solution and rotated for 4 hours. The aminoLink gel contains aldehyde functional groups that spontaneously react with primary amines on the antibody. The Schiff base bonds that form are then reduced to stable secondary amine bonds in the presence of the mild reducing agent, sodium cyanoborohydride. Particles were then washed twice with 2 mL 1M Tris HCL, pH 7.4, resuspended in 2 mL of this same buffer and 40 μl Sodium cyanoborohydride to block unbound sites on the particles, and rotated for 30 minutes. Particles washed 5 times with 1M sodium chloride were suspended in 1 mL PBS.

peptide mimetic 12 = biological target: T8, peptide mimetic 12; assay: as above
T8 construct: As for peptide mimetic 1; also called peptide 12
T8 peptide: SPSHMYPSSLIQ
From the text: as §2, §3

peptide mimetic 1 = biological target: T9, peptide mimetic 1; assay: as above
T9 construct: also called peptide 1
T9 peptide: QIYEVHHRGYTD
From the text: as §2, §3

peptide mimetic 9 = biological target: T10, peptide mimetic 9; assay: as above
T10 construct: As for peptide mimetic 1; also called peptide 9
T10 peptide: GPHTYPPQIALT
From the text: as §2, §3

peptide mimetic 3 = biological target: T11, peptide mimetic 3; assay: as above
T11 construct: As for peptide mimetic 1; also called peptide 3
T11 peptide: SPPTYEIHHFSP
From the text: as §2, §3

peptide mimetic 10 = biological target: T12, peptide mimetic 10; assay: as above
T12 construct: As for peptide mimetic 1; also called peptide 10
T12 peptide: EMAPVASANLPP
From the text: as §2, §3

peptide mimetic 4 = biological target: T13, peptide mimetic 4; assay: as above
T13 construct: As for peptide mimetic 1; also called peptide 4
T13 peptide: YQIHHNTQKRGG
From the text: as §2, §3

peptide mimetic 7 = biological target: T14, peptide mimetic 7; assay: as above
T14 construct: As for peptide mimetic 1; also called peptide 7
T14 peptide: GWYEIHHPSQRA
From the text: as §2, §3

peptide mimetic 2 = biological target: T15, peptide mimetic 2; assay: as above
T15 construct: As for peptide mimetic 1; also called peptide 2
T15 peptide: NLHQYPTAMQAR
From the text: as §2, §3

peptide mimetic 5 = biological target: T16, peptide mimetic 5; assay: as above
T16 construct: As for peptide mimetic 1; also called peptide 5
T16 peptide: DSVVPSYEVHHK
From the text: as §2, §3

[4] = biological target: T17, S26C Aβ40 reduced by DTT to its monomeric form; assay: 71A1 capture / 3D6 detector sandwich immunoassay, S26C Aβ40 dimer native or reduced by DTT
T17 construct: The dimer of m16 after reduction with DTT; also called reduced monomeric counterpart; monomeric Aβ

[5] = biological target: T18, NETL-1 cyclized synthetic peptide immunogen (cyclized on resin through the cysteines C4 and C27; N-terminal cysteine used for conjugation to maleimide-activated plates); assay: indirect ELISA, peptide on maleimide-activated plate
T18 construct: Aβ residues 9-18, then Pro-Asn, then the same ten residues backwards; also called cyclized peptide; the immunogen
T18 peptide: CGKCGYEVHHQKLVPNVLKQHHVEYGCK
From the text: (§4) The rationale behind the NETL-1 immunogen was that a more focused epitope formed by a cyclized peptide may restrict the response to a dimer structure derived from the chosen 10aa sequence with minimal or no induction of responses to the monomer 10aa peptide sequence found within full length Aβ40. Both responses were observed. We can account for this, in part, by the fact that there may always be a minimal epitope available for recognition that is cross-reactive with the monomer sequence no matter how small the peptide structure. Several monoclonal antibodies specific for both NETL-1 and NETL-2 were isolated. Two isolates, 7a and 1g stood out that bound to NETL-1 but not to NETL-2 or Aβ40. These isolates were sub-cloned for further characterization. Two isolated subclones, Mab 71A1 and 1G5 were chosen, grown in tissue culture and purified for confirmation of specificity and for future studies. Both 71A1 and 1G5 monoclonal antibodies bound to the cyclized peptide, NETL-1 and not to control wells, Aβ40 monomer peptide or control peptide NETL-2 (FIG. 2). FIG. 2 is a standard, indirect enzyme linked immunosorbent assay (ELISA) with the purified monoclonal antibodies assayed for binding to Aβ40, NETL 1 or NETL 2 peptides conjugated to malemide-activated (SH-reactive) micro titer plates. After one hour incubation, the wells were washed and then 100 ul of a secondary, Horseradish peroxidase (HRPO)-conjugated goat anti-mouse antibody was added and the plates, incubated for an additional hour before addition of TMB (3,3′,5,5′-Tetramethylbenzidine) substrate. Absorbance was measured in a spectrophotometer at 650 nm.

[6] = biological target: T19, full length Aβ40 with a C-terminal cysteine (conjugated to maleimide-activated plate through the added cysteine); assay: as above
T19 construct: also called Aβ40 monomer peptide
From the text: as §4

T2 sequence (P05067 672-713): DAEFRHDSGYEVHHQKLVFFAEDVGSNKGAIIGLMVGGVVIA
T3 sequence (P05067 672-713): as above
T1 sequence (P05067 672-713): as above

B1: monoclonal antibody 71A1 (antibody, V domains shown)
VH: EVQLQESGAELVRPGVSVKLSCKTSDYTFTSYWLHWFKQRPEQGLERIGEIDPSNGDADYSEKFKSKATLTVDKSSTTAYMQLASLTSEDSAVYYCAREAYGHYFDYWGQGTTLTVSS
VL: DVVMTQTPLSLPVSLGDQASISCRSSQSLEHSNGNTYLHWYLQKPGQSPKLLIYKLSNRFSGVPDRFSGSGSGTDFTLKISRVEAEDLGVYFCSQSTHVPYTFGGGTKLEIK
notes: Biotinylated when used as capture on streptavidin beads, resin or plates; also called Mab 71A1; mab 71 A1
With B1 the “decrease of 71A1/3D6 signal after 8M GnCl denaturation” value (shortened to “decrease of 71A1/3D6 signal”) [1] was over 84%, the “decrease of 71A1/3D6 signal” value [2] was over 70% and the “decrease of 71A1/3D6 signal” value [3] was over 99%. B1: binds (peptide mimetic 11); binds (peptide mimetic 8); binds (peptide mimetic 13). B1: binds (peptide mimetic 6); binds (peptide mimetic 12); binds (peptide mimetic 1). B1: binds (peptide mimetic 9); binds (peptide mimetic 3); binds (peptide mimetic 10). B1: binds (peptide mimetic 4); binds (peptide mimetic 7); binds (peptide mimetic 2). For the same binder, the binding result (peptide mimetic 5) was “binds”, the “fold less binding than to higher order Aβ (non-reduced S26C dimer)” value [4] was over 100 fold and the binding result [5] was “binds”. B1: no binding [6].

B2: monoclonal antibody 1G5 (antibody, V domains shown)
VH: B1 VH with E1Q, E6Q, S7P
VL: B1 VL
notes: Biotinylated when used as capture; also called Mab 1G5; isolate 1g
B2: binds [5]; no binding [6].
